Laboratory results from patent US20240109974A1 (SHANDONG SIMCERE BIOPHARMACEUTICAL, published 2024).

T1: Cynomolgus TNFR2-His (Sino 90102-C08H) (cynomolgus monkey, UniProt A0A2K5VET2 132-366)
T1 construct: Bought protein; also called cynomolgus monkey TNFR2; recombinant cynomolgus monkey TNFR2 protein; not shown: His tag
T1 sequence: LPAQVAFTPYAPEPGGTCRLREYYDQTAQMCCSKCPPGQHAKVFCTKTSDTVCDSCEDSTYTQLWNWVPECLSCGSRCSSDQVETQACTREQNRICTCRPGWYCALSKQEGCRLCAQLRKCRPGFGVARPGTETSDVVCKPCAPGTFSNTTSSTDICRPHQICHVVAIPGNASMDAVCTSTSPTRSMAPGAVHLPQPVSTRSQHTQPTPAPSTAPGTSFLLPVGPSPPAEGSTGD

T2: human TNFR2 on the surface of CHO-TNFR2 cells (human, UniProt P20333 23-461)
T2 construct: whole, on cells
T2 sequence (looked up): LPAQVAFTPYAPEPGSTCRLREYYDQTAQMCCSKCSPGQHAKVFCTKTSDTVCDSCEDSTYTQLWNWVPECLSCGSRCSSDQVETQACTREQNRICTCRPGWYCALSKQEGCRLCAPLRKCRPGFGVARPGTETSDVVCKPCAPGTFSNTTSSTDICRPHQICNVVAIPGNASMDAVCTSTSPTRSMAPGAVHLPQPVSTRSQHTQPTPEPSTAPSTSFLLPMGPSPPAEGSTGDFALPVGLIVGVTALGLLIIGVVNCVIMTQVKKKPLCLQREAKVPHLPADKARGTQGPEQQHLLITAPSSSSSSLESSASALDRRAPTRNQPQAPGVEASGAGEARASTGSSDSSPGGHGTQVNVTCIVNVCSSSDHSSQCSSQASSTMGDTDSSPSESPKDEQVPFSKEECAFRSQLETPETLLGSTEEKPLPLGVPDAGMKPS

T3: Human TNFR2-His (Sino 10417-H08H) (human, UniProt P20333 23-257)
T3 construct: Bought protein; also called recombinant human TNFR2 protein; not shown: His tag
T3 sequence (looked up): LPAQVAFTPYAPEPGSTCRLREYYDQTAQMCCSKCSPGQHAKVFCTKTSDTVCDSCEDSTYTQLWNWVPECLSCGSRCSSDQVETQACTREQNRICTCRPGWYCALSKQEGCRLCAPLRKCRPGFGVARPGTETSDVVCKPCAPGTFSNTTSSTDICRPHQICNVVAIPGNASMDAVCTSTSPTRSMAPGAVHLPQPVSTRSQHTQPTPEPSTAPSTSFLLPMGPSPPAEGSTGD


Assays:
[1] = molecular target: T1, Cynomolgus TNFR2-His (Sino 90102-C08H); assay: ELISA, plate coated with Cynomolgus TNFR2-His, detection with anti-human IgG Fc-HRP [panel A]
Experimental: (§1) The test humanized antibody against TNFR2 (as described in Example 1, the antibody was comprised of variable regions linked to IgG-Fc; the WT chimeric antibody also adopted the IgG-Fc structure) was subjected to 3.33-fold gradient dilution, loaded with 100 μl/well, and incubated with shaking at room temperature for 1.5 hours. The plate was washed, and then a working solution of murine anti-human IgG Fc-HRP (diluted at 1:10000) was added, loaded with 100 μl/well, and incubated with shaking at room temperature for 1.0 hour. The plate was washed again, and then the substrate TMB of HRP was added to develop colour. A stop solution was added to stop the reaction, and then a microplate reader (MD 13) was used to read the absorbance value. The binding curve of an antibody was drawn with antibody concentration as the abscissa and corresponding OD value as the ordinate, and fitted with four parameters (GraphPad Prism9) to calculate the EC50 value. The smaller the EC50 value, the stronger the binding ability of an antibody to human/cynomolgus monkey TNFR2. The binding effect of a humanized antibody was normalized to its corresponding human-murine chimeric antibody WT (see SEQ ID NOs: 38-43 for the sequence). The higher the percentage value, the better the binding effect of the humanized antibody. […]

[2] = molecular target: T2, human TNFR2 on the surface of CHO-TNFR2 …; assay: flow cytometry competition: antibody titrated on CHO-TNFR2 cells, then human TNFα-biotin, detection with PE-streptavidin [panel A]
Experimental: (§2) CHO stable cells highly expressing human TNFR2 were used for the experiment (the same as CHO-TNFR2 in Example 4). The CHO-TNFR2 cells were digested, washed twice with DPBS, then stained with Live/Dead (L/D) (20 minutes at room temperature), and plated at a density of 1×10⁵ cells/50 μl/well. A test anti-TNFR2 antibody was diluted to 6 μg/ml with a staining buffer as the starting concentration: the antibody was subjected to 3.33-fold gradient dilution, with a total of 7 concentration points. The diluted antibody was added to the plated cells at 50 μl/well, and the mixture was mixed well by gentle pipetting, and incubated at 4° C. for 30 minutes. Then the diluted 100 ng/ml of human TNFα-biotin was added at 100 μl/well, and the mixture was mixed well by gentle pipetting, and then incubated at 4° C. for 30 minutes. The mixture was washed twice with a staining buffer, and then 0.12 μg/ml PE-streptavidin (BioLegend, Cat #405204) was added at 100 μl/well; the resulting mixture was incubated at 4° C. for 30 minutes. The mixture was washed twice with a staining buffer, and then 150 μl of staining buffer was added to resuspend the cells; signals were detected by a flow cytometer (Thermo Attune NxT). […]

[3] = molecular target: T2, human TNFR2 on the surface of CHO-TNFR2 …; assay: flow cytometry competition: antibody titrated on CHO-TNFR2 cells, then human TNFα-biotin, detection with PE-streptavidin [panel B]
Experimental: as §2

[4] = molecular target: T3, Human TNFR2-His (Sino 10417-H08H); assay: ELISA, plate coated with Human TNFR2-His, detection with anti-human IgG Fc-HRP [panel B]
Experimental: as §1

| Binder | EC50 (read off the curve) [1] [µg/mL] | IC50 (read off the curve) [2] [µg/mL] | IC50 (read off the curve) [3] [µg/mL] | EC50 (read off the curve) [4] [µg/mL] |
| --- | --- | --- | --- | --- |
| 001-WT (antibody, V domains shown, Human-murine chimeric wild-type molecule; also called human-murine chimeric antibody WT of #001) VH: EVQLQESGGGLVQPGGSLNLSCAASGFAFSTYDLSWVRQTPEKRLEWVAYINNGGISTYYSDTVKGRFTISRDNAKNTLYLQMSSLKSEDTAMYYCVRGPFYGSANYFDYWGQGTTVTVSS VL: EIVMTQSPASLSLSVGETVTITCRTSESIYSNLPWYQQKQGKSPQLLVYDATKLAEGVPSRFSGSESGTQYSLKINSLQSEDFGTYYCQHFWVTPWTFGGGTKLEIK | ~0.01 | ~0.09 |  |  |
| 219-WT (antibody, V domains shown, Human-murine chimeric wild-type molecule) VH: EVQLQESGAELVRPGASVKLSCKASGYSFTNYWMNWVKQRPGQGLEWIGMIHPSDTETRLNQNFKDKATLTVDKSSSTSYMQLSSPTSEDSAVYYCARGEGLGAARSVSMDYWGQGTTVTVSS VL: DILMTQSPSSLSASLGDRVTISCRASQDISNYLNWYQQKPDGTVKVLIYYTAILHSGVPSRFSGSGSGTDYSLTISNLEQEDIATYFCQQGNTLPWTFGGGTKLEIK |  |  | ~0.05 | ~0.02 |
